Experimental data taken from publication PMC8233210, “The archaeal triphosphate tunnel metalloenzyme SaTTM defines structural determinants for the diverse activities in the CYTH protein family” (The Journal of Biological Chemistry, 2021).

Columns and labels:
SaTTM (Saci_0718) = target: T1, SaTTM (Saci_0718) (Sulfolobus acidocaldarius, UniProt Q4JAT2); experiment: X-ray crystal structure of the complex; type: binding; conditions: 10 mM CaCl2, 5 mM PPi, pH 4.6, 4 °C; also 10 mM MgCl2 crystal without bound Mg2+; closed tunnel, active site
T1 construct: full ORF, C-terminal His6 (pSVA1028), expressed in E. coli BL21-Gold (DE3), heat step, IMAC, SEC; homodimer of 56 kDa

[1] = substrate: O=P(O)(O)OP(=O)(O)OP(=O)(O)O; experiment: malachite green phosphate release, Michaelis-Menten fit; type: biochemical, Sulfolobus acidocaldarius; conditions: 2 mM MgCl2, 50 mM Tris, 200 mM NaCl, pH 8.6, 75 °C, 5 nM enzyme
[2] = target: the molecule itself; experiment: SEC; analytical Superdex 200 10/300 GL, SEC buffer (200 mM NaCl, 50 mM Tris, pH 9.0), compared with standards

| Molecule | X-ray crystal structure of the complex (SaTTM (Saci_0718)) | Km [1] | kcat [1] [s⁻¹] | stoichiometry N [2] |
| --- | --- | --- | --- | --- |
| O=P(O)(O)OP(=O)(O)O [PPi, pyrophosphate] | we determined crystal structures of SaTTM in complex with pyrophosphate |  |  |  |
| Sulfolobus acidocaldarius triphosphate tunnel metalloenzyme (SaTTM) (enzyme, Sulfolobus acidocaldarius DSM 639, UniProt Q4JAT2 1-185, looked up, SaTTM (Saci_0718), CYTH ortholog of Sulfolobus acidocaldarius DSM 639; ORF amplified from the genome and cloned NcoI/BamHI into pSA4 to give pSVA1028; No step that removes the His6 tag is described; The NcoI cloning site may have changed the residue after the first methionine; also called Saci_0718; S. acidocaldarius CYTH enzyme; source: E. coli BL21-Gold (DE3), purified (heat step 70 °C, Ni-NTA, …)) MSYIEREIKLRVISPSLEEIEERIRNNYTFINEEHQIDIYYNNPIRDFRKSDEALRLRNTNGKVILTYKGPKQSKETKTREEIEVEVSDLHKMDLILRKLGFIRSFQVEKIRKNYKYADFIISLDSIKELGEFIEIEGINKTEKELISFVDEFVKKHQIQYEKTIKSYLELLVEHAKKTNNSNTH |  | 41.0 (95% CI 29.8 to 55.4) μM | 5934 | 2 |
